This is an account of results in patent US7285654 (SIGNAL PHARMACEUTICALS, dated 2007).

The test concerns the target IKK signalsome (stimulus-inducible IκB kinase complex) immunopurified from TNFα-stimulated HeLa cells (human). The experiment in a line: product inhibition of immunopurified IKK signalsome; 32P incorporation into GST-IκBα (1-54), TCA precipitation, Dixon analysis.

Square brackets hold non-standard residues; d marks the D form. Ends that are not written are not given here. pS = N[C@@H](COP(=O)(O)O)C(=O)O

Sequence of IKK signalsome (stimulus-inducible IκB kinase complex) immunopurified from TNFα-stimulated HeLa cells (human) (chain, as listed by the source, chain 1 of 3): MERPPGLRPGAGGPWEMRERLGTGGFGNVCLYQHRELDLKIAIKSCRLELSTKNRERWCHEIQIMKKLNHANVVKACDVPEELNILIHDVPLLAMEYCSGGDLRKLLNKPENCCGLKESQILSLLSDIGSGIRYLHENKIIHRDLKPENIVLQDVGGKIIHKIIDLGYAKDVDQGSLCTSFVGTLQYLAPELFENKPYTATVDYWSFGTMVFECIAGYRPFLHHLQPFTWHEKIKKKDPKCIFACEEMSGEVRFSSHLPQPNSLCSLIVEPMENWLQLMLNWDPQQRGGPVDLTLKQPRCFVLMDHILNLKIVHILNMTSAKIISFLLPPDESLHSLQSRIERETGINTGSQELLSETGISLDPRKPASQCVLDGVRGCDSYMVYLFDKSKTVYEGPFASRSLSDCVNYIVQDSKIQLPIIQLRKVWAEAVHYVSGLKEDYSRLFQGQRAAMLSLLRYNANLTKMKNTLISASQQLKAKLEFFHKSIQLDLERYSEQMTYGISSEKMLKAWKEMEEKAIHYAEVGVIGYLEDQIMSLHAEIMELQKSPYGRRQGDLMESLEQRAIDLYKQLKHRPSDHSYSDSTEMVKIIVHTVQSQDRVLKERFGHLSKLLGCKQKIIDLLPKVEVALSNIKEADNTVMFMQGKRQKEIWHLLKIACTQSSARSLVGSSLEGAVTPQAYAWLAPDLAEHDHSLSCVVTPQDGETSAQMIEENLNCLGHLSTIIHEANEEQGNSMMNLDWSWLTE
Sequence of IKK signalsome (stimulus-inducible IκB kinase complex) immunopurified from TNFα-stimulated HeLa cells (human) (chain, as listed by the source, chain 2 of 3): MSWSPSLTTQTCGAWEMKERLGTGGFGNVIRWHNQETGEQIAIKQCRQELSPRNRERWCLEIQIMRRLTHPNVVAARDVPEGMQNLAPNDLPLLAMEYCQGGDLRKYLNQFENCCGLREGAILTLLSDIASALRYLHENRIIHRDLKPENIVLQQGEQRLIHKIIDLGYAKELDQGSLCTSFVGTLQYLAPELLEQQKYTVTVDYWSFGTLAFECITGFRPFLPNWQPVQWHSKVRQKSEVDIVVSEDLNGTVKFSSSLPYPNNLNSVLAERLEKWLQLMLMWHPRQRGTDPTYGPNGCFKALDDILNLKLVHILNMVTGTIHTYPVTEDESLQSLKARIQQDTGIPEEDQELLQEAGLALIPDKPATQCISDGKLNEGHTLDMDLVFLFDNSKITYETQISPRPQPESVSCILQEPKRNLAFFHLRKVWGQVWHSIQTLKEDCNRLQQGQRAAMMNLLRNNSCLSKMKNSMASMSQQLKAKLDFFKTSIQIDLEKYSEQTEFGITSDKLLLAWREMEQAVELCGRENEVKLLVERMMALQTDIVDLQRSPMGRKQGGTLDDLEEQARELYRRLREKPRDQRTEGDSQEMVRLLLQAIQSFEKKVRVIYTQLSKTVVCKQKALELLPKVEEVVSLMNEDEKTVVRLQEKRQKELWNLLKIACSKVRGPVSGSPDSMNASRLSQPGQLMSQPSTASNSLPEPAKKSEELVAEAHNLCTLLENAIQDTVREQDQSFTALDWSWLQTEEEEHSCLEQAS
Sequence of IKK signalsome (stimulus-inducible IκB kinase complex) immunopurified from TNFα-stimulated HeLa cells (human) (chain, as listed by the source, chain 3 of 3): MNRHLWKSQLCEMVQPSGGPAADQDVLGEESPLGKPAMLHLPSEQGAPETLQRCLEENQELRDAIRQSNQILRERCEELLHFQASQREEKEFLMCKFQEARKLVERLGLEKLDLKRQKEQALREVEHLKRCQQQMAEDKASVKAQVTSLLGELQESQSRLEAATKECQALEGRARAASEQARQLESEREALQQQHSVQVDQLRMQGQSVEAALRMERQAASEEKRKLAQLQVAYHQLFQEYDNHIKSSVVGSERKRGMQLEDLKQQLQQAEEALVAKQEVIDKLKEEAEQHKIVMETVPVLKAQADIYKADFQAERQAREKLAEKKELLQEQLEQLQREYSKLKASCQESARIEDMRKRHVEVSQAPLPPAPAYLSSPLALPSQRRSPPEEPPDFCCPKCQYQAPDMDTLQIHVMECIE

B1: IκBα (21-41) peptide P32,36 (doubly phosphorylated IκBα peptide bearing phosphoserines at both positions 32 and 36) (peptide)
peptide: CKKERLLDDRHD[pS]GLD[pS]MKDEE
notes: The phosphorylated forms are described as the same peptide chemically phosphorylated; also called P32, 36 peptide
On to B1, for which the Ki stood at 14 µM. In other words, the double-digit micromolar range.
